Test results reported in US20220396633A1 (MABPRO A S, published 2022).
Residue numbers refer to the chain shown, from its start.

B1: CA9hu-2_HC1LC5 (antibody, V domains shown)
VH: EVQLVESGGGLVQPGGSLKLSCAASGFTFNTNAMHWVRQASGKGLEWVGRIRSKSNNYTTYYADSVKDRFTISRDDSKNTAYLQMNSLKTEDTAVYYCVCGSWFAYWGQGTLVTVSS
VL: DIVMTQSPDSLAVSLGERATINCKSSQSLLNSSNQKNYLAWYQQKPGQPPKLLIYFTSTRQSGVPDRFSGSGSGTDFTLTISSLQAEDVAVYYCQQHYSIPLTFGQGTKLEIK
notes: Humanized variant of IV/18; VH in-frame with human IgG constant domain (allotype G1m17,1), VL in-frame with human kappa constant domain (allotype Km3)
B2: CA9hu-2_HC3LC2 (antibody, V domains shown)
VH: QVQLVESGGGVVQPGGSLRLSCAASGFTFNTNAMHWVRQAPGRGLEWVARIRSKSNNYTTYYADSVKDRFTISRDNSKNTLYLQVNSLRAEDTAVYYCVCGSWFAYWGQGTLVTVSS
VL: B1 VL with Y42F, K51N, L53V, S82N, Y93F, K109Q, L110V
notes: as for B1
B3: CA9hu-2_HC3LC4 (antibody, V domains shown)
VH: B2 VH
VL: B1 VL with Y42F, L52V, S69T
notes: as for B1
B4: CA9hu-2_HC3LC1 (antibody, V domains shown)
VH: B2 VH
VL: B1 VL with I2V, A19V, P49S
notes: as for B1
B5: CA9hu-2_HC4LC2 (antibody, V domains shown)
VH: B2 VH with Q1E, G16R, R43K, V85M
VL: B1 VL with Y42F, K51N, L53V, S82N, Y93F, K109Q, L110V
notes: as for B1
B6: CA9hu-2_HC3LC3 (antibody, V domains shown)
VH: B2 VH
VL: B1 VL with V3Q, Y93F, L110V
notes: as for B1
B7: CA9hu-2_HC2LC3 (antibody, V domains shown)
VH: B1 VH with N79S
VL: B1 VL with V3Q, Y93F, L110V
notes: as for B1
B8: CA9hu-2_HC2LC4 (antibody, V domains shown)
VH: B1 VH with N79S
VL: B1 VL with Y42F, L52V, S69T
notes: as for B1
B9: CA9hu-2_HC4LC1 (antibody, V domains shown)
VH: B2 VH with Q1E, G16R, R43K, V85M
VL: B1 VL with I2V, A19V, P49S
notes: as for B1
B10: CA9hu-2_HC2LC5 (antibody, V domains shown)
VH: B1 VH with N79S
VL: B1 VL
notes: as for B1
B11: CA9hu-2_HC5LC5 (antibody, V domains shown)
VH: B1 VH with L112T
VL: B1 VL
notes: as for B1
B12: CA9hu-2_HC1LC1 (antibody, V domains shown)
VH: B1 VH
VL: B1 VL with I2V, A19V, P49S
notes: as for B1
B13: CA9hu-2_HC5LC2 (antibody, V domains shown)
VH: B1 VH with L112T
VL: B1 VL with Y42F, K51N, L53V, S82N, Y93F, K109Q, L110V
notes: as for B1
B14: CA9hu-2_HC2LC2 (antibody, V domains shown)
VH: B1 VH with N79S
VL: B1 VL with Y42F, K51N, L53V, S82N, Y93F, K109Q, L110V
notes: as for B1
B15: CA9hu-2_HC3LC5 (antibody, V domains shown)
VH: B2 VH
VL: B1 VL
notes: as for B1
B16: CA9hu-2_HC1LC4 (antibody, V domains shown)
VH: B1 VH
VL: B1 VL with Y42F, L52V, S69T
notes: as for B1
B17: CA9hu-2_HC2LC1 (antibody, V domains shown)
VH: B1 VH with N79S
VL: B1 VL with I2V, A19V, P49S
notes: as for B1
B18: CA9hu-2_HC4LC3 (antibody, V domains shown)
VH: B2 VH with Q1E, G16R, R43K, V85M
VL: B1 VL with V3Q, Y93F, L110V
notes: as for B1
B19: CA9hu-2_HC5LC1 (antibody, V domains shown)
VH: B1 VH with L112T
VL: B1 VL with I2V, A19V, P49S
notes: as for B1
B20: CA9hu-2_HC5LC4 (antibody, V domains shown)
VH: B1 VH with L112T
VL: B1 VL with Y42F, L52V, S69T
notes: as for B1
B21: CA9hu-2_HC1LC2 (antibody, V domains shown)
VH: B1 VH
VL: B1 VL with Y42F, K51N, L53V, S82N, Y93F, K109Q, L110V
notes: as for B1
B22: CA9hu-2_HC5LC3 (antibody, V domains shown)
VH: B1 VH with L112T
VL: B1 VL with V3Q, Y93F, L110V
notes: as for B1
B23: CA9hu-2_HC4LC4 (antibody, V domains shown)
VH: B2 VH with Q1E, G16R, R43K, V85M
VL: B1 VL with Y42F, L52V, S69T
notes: as for B1
B24: CA9hu-2_HC1LC3 (antibody, V domains shown)
VH: B1 VH
VL: B1 VL with V3Q, Y93F, L110V
notes: as for B1

These binders were tested against CA IX-positive antigen (protein extract of C-33a_CA IX cells) (human, UniProt Q16790 38-459) (assay: ELISA, antibody 5 ug/ml on coated protein extract of C-33a_CA IX cells versus C-33a_neo).
Method: To evaluate the antigen-binding specificity, all twenty-five humanized variants of CA9hu-2 were subjected to enzyme-linked immunosorbent assay (ELISA) using either CA IX-positive or CA IX-negative antigen. Antigens were prepared from stably transfected C-33a cell line expressing CA IX (C-33a_CA IX) and parental mock-transfected C-33a cells without CA IX expression (C-33a_neo).
Proteins were extracted from the cell monolayer with RIPA lysis buffer (0.1% deoxycholate, 1% Triton X-100 and protease inhibitor cocktail in PBS). Protein concentrations were determined by bicinchoninic acid assay (ThermoFisher Scientific, Waltham, Mass. USA) according to the manufacturer's instructions. Protein extracts were diluted to final concentration 0.2 mg/ml in PBS. Protein concentration of antigen samples used in screening of antigen-antibody specific interaction tested by ELISA meets the requirements for low detergent content that could otherwise interfere throughout the analysis. 50 μl of either CA IX-positive or CA IX-negative antigen was coated on the surface of microplate wells overnight at 37° C. After washing with PBS-T 0.05% Tween-20 in PBS pH7.2, 50 μl of all humanized variants of CA9hu-2 (diluted to concentration 5 μg/ml in 10% FCS in PBS-T) were added and incubated for 2 h at room temperature. Peroxidase-labeled swine anti-human IgG (diluted 1:5000 in 10% FCS in PBS-T; Sigma-Aldrich, St. Louis, Mo. USA) was used as detector. Parental IV/18 antibody (marked as “mouse Ab”) as well as chimeric HC0LC0 antibody (having the murine variable domains and the human Ig constant domains) were used as reference samples. Results are expressed as a fold of induction and are calculated as O.D. values of absorbance measured at 492 nm from CA IX-positive antigen/O.D. values of absorbance measured at 492 nm from CA IX-negative antigen.

Binding result, binds:
B1, B2, B3, B4, B5, B6, B7, B8, B9, B10, B11, B12, B13, B14, B15, B16, B17, B18, B19, B20, B21, B22, B23, B24
